In assay [1] the target is T1, human ferroportin 1 (human, UniProt Q9NP59 1-571).
T1 sequence: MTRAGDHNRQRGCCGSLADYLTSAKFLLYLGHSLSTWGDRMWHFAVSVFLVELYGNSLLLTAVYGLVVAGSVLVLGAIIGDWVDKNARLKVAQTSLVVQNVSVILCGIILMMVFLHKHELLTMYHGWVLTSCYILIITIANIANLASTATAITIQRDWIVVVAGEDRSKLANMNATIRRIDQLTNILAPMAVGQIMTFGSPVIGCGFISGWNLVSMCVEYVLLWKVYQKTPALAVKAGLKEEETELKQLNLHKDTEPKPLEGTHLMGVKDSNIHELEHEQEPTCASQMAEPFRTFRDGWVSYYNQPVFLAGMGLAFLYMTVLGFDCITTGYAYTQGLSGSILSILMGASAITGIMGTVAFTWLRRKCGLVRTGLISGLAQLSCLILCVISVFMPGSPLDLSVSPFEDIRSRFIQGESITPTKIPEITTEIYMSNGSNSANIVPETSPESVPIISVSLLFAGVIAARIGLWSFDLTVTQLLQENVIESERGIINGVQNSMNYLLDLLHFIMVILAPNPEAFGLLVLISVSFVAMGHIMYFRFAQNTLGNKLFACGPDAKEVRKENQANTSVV
The assay can be described thus: cell-based or functional assay.

In assay [2] the target is T2, human FPN1 C-terminally fused with GFP (human, UniProt Q9NP59 1-571, GFP reporter fused to the C-terminus ("FPN1 is C-terminally fused with GFP"). It is left out because the patent gives no letters for it.).
T2 sequence: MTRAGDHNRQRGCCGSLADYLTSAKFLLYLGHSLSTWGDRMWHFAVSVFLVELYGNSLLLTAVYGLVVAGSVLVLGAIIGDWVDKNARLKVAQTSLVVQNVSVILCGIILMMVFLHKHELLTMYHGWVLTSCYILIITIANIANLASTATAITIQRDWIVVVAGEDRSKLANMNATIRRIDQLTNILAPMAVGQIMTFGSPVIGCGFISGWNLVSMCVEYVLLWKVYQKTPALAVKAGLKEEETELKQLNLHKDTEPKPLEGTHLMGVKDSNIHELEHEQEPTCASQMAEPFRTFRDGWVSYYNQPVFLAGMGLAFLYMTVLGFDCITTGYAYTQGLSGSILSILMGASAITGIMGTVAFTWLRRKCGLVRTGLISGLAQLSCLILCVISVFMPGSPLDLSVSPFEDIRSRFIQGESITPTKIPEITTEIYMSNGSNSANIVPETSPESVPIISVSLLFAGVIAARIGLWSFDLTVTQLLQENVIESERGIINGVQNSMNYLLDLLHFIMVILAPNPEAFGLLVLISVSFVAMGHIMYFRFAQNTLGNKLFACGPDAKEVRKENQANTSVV
Put plainly: cell-based or functional assay.

For assay [3], the target named is T2, human FPN1 C-terminally fused with GFP. The assay can be described thus: cell-based or functional assay. This is another data set of the same source.
Assay [4] has the same target. The assay can be described thus: SPR, Biacore T100, 25 C, 1:1 model; FPN1-GFP captured from cell lysate on rabbit anti-GFP antibody, Mab injected.
Procedure: (§1) The affinities of FPN1 binding Fabs and Mabs may be determined on Biacore T100 and using 1:1 binding model in the Biacore T100 evaluation software (BIAcore® AB, Upsala, Sweden). […] FPN1 is C-terminally fused with GFP. Expression of FPN1-GFP is induced by 1-10 ng/mL doxycycline for 1-24 hours. Induced cells are harvested by scraping off from flasks and then washed with 1×PBS. Cell pellets can be stored at −80° C. before use. About five million induced cells are resuspended in 10 mM phosphate buffer with 0.2% Tween-20 and protease inhibitors, e.g., Complete™ Protease Inhibitor Cocktail Tablet (Roche Diagnostics Corp., Indianapolis, Ind.). Three cycles of freeze/thaw/sonication are used to lyse the cells. The lysate is diluted two-fold with Biacore running buffer and centrifuged to remove debris.
(§2) On Biacore T100, rabbit anti-GFP antibody or goat anti-GFP antibody is immobilized onto flow cell 1 to 4 of a CMS chip at 5000-15000 Rus. FPN1-GFP is captured onto flow cell 2, 3, or 4 from the lysate of induced cells. Flow cell 1 is used as reference. Then all flow cells are injected with different concentrations of antibodies to evaluate the binding and kinetics.
Assay [5] has the same target. Put plainly: SPR, Biacore T100, 37 C, 1:1 model; FPN1-GFP captured from cell lysate on rabbit anti-GFP antibody, Fab injected. A general note: SPR reads the build-up and loss of mass on a sensor chip optically.
Procedure: as §1, §2
For assay [6], the target named is T1, human ferroportin 1. The assay can be described thus: inhibition of binding of 30 nM biotinylated hepcidin to FPN/293 cells, ELISA of lysate; antibody at 125 nM; mean.
Procedure: (§3) Next, 65 μL of lysing buffer (0.5% Triton X-100, 10 mM EDTA) are added to all the wells and the plates are shaken for 10 minutes. Next, 50 μL of the solution in each well is transferred to individual wells of a streptavidin coated Greiner microtiter plate (60 μL of 2 μg/mL streptavidin (Sigma, St. Louis, Mo.; catalog no. S4762) in PBS, incubated at 4° C. overnight, washed 2 times (0.1% Tween 20, TBS), blocked with casein/PBS), and then incubated for one hour at room temperature. […] After incubating one hour at room temperature, the plate is washed 4× and 50 μL of OPD substrate (Sigma; catalog no. P6912) is added. The reaction is stopped with 100 μL 1 N HCl after 4 minutes. Absorbance at 490 nm (A₄₉₀) is read using an appropriate ELISA plate reader.
In assay [7] the target is T1, human ferroportin 1. The assay can be described thus: inhibition of binding of 30 nM biotinylated hepcidin to FPN/293 cells, ELISA of lysate; antibody at 500 nM; mean. (An ELISA detects its analyte on a solid surface through an enzyme-linked reagent.)
Procedure: as §3
Assay [8] concerns the target T1, human ferroportin 1. The assay can be described thus: inhibition of binding of 30 nM biotinylated hepcidin to FPN/293 cells, ELISA of lysate; antibody at 7.8 nM; mean.
Procedure: as §3
Assay [9] concerns the target T1, human ferroportin 1. The assay can be described thus: inhibition of binding of 30 nM biotinylated hepcidin to FPN/293 cells, ELISA of lysate; antibody at 2000 nM; mean.
Procedure: as §3
Assay [10] addresses T1, human ferroportin 1. The assay can be described thus: inhibition of binding of 30 nM biotinylated hepcidin to FPN/293 cells, ELISA of lysate; antibody at 31.25 nM; mean.
Procedure: as §3
Assay [11] has as its target T2, human FPN1 C-terminally fused with GFP. Put plainly: SPR, Biacore T100, 37 C, 1:1 model; FPN1-GFP captured from cell lysate on goat anti-GFP antibody, Fab injected; n = 3.
Procedure: as §1, §2
The target is the same in assay [12]. Put plainly: SPR, Biacore T100, 37 C, 1:1 model; FPN1-GFP captured from cell lysate on goat anti-GFP antibody, Fab injected; n = 4.
Procedure: as §1, §2

As to Control human IgG4 (antibody), in assay [1], the Percentage inhibition of mature hepcidin induced increase in cellular ferritin, Caco-2 cells, antibody at 2.22E-7 M amounted to 24.2%; the Percentage inhibition of mature hepcidin induced increase in cellular ferritin, Caco-2 cells, antibody at 2.47E-8 M was 22.1%; the Percentage inhibition of mature hepcidin induced increase in cellular ferritin, Caco-2 cells, antibody at 2.7E-9 M was found to be 22.4%; the Percentage inhibition of mature hepcidin induced increase in cellular ferritin, Caco-2 cells, antibody at 3.0E-10 M worked out at 15.5%. Besides, in assay [1], the Percentage inhibition of mature hepcidin induced increase in cellular ferritin, Caco-2 cells, antibody at 6.67E-7 M came to 18.7%; the Percentage inhibition of mature hepcidin induced increase in cellular ferritin, Caco-2 cells, antibody at 7.4E-8 M was found to be 21.1%; the Percentage inhibition of mature hepcidin induced increase in cellular ferritin, Caco-2 cells, antibody at 8.0E-9 M was 16.1%; the Percentage inhibition of mature hepcidin induced increase in cellular ferritin, Caco-2 cells, antibody at 9.0E-10 M was 17.5%.

B1: Mab 1G9 (antibody, mouse IgG1, kappa, V domains shown)
VH: QVQLKQSGAELVRPGTSVKVSCKASGYAFTSFLIEWLKQRPGQGLEWIGTINPRTGGTKYNEKFRGKATLTADKSSSTAYMQLNSLTSDDSAVYFCVREFFDYWGQGTSLTVSS
VL: ETTVTQSPSYLAASPGETITINCRASKSISKYLAWFQEKPGKTNKLLIYAGSKLHSGIPSRFSGSGSGTDFTLTISSLEPEDFAMYYCFQHNEYPYTFGGGTKLELKR
notes: also called mouse 1G9; murine Mab 1G9
Take B1: in assay [2], the “Percent (%) Inhibition of Mature Human Hepcidin-induced Internalization and Degradation, Mab at 7.4 nM” value is 24.3%; the “Percent (%) Inhibition of Mature Human Hepcidin-induced Internalization and Degradation, Mab at 22 nM” value was 49.9%; the “Percent (%) Inhibition of Mature Human Hepcidin-induced Internalization and Degradation, Mab at 67 nM” value stood at 61.8%; the “Percent (%) Inhibition of Mature Human Hepcidin-induced Internalization and Degradation, Mab at 200 nM” value was 62.4%. The “Percent (%) Inhibition of Mature Human Hepcidin-induced Internalization and Degradation, Mab at 600 nM” value in assay [2] came out at 67.9%. For the same molecule, in assay [3], the “Absolute IC50 of inhibition of hepcidin-25-induced internalization and degradation of FPN1-GFP” value was 18.8 nM; the “Relative IC50 of inhibition of hepcidin-25-induced internalization and degradation of FPN1-GFP” value worked out at 9.2 nM; the “Top % Inhibition of hepcidin-25-induced internalization and degradation of FPN1-GFP” value was 69%. In [4], the Kd (in general, a measure of binding affinity in units of concentration) is 0.728 nM; the off-rate (koff) (as a rule, the first-order rate constant of dissociation) is 9.81e-05 s⁻¹; the association rate constant (kon) (in general, a measure of how fast the partners come together) was determined as 135000 M⁻¹ s⁻¹.

B2: Fab 34A9 (Fab, V domains shown)
VH: QVQLKQSGAELVRPGTSVKVSCKASGYAFTNFLIEWLKQRPGQGLEWIGTINPETGGTKYNEKFRGKATLTADKSSSTAYMQLNSLTSDDSAVYFCVREFFDYWGQGTSLTVSS
VL: ETTVTQSPSYLAASPGETITINCRASKSISKYLAWFQEKPGKTNKLLIYAGSTLHSGIPSRFSGSGSGTDFTLTISSLEPEDFAMYYCQQHNEYPYTFGGGTKLELK
notes: Mouse Fab; also called mouse Fab 34A9
In assay [5], B2 showed a dissociation constant Kd of 41.5 nM, a koff of 0.00262 s⁻¹ and a kon of 63200 M⁻¹ s⁻¹.

B3: Mab L2.2-4 (antibody, human IgG4 S228P, kappa, F234A L235A, V domains shown)
VH: QVQLVQSGAEVKKPGSSVKVSCKASGYAFTSFLIEWVRQAPGQGLEWMGTSNPRTGGRKYKEKFRGRVTITADKSTSTAYMELSSLRSEDTAVYYCAREFFDYWGQGTTVTVSS
VL: DIQMTQSPSSLSASVGDRVTITCRASKSISKYTAWYQQKPGKAPKLLIYAGSKLRSGVPSRFSGSGSGTDFTLTISSLQPEDFATYYCQQHNEYPYTFGGGTKVEIKR
For B3, in assay [3], the “Absolute IC50 of inhibition of hepcidin-25-induced internalization and degradation of FPN1-GFP” value came out at 6.2 nM; the “Relative IC50 of inhibition of hepcidin-25-induced internalization and degradation of FPN1-GFP” value was 4.8 nM; the “Top % Inhibition of hepcidin-25-induced internalization and degradation of FPN1-GFP” value was determined as 81.6%. In [1], the “EC50 of inhibition of mature hepcidin induced increase in cellular ferritin, Caco-2 cells” value turned out to be 193 nM; the “Percentage inhibition of mature hepcidin induced increase in cellular ferritin, Caco-2 cells, Mab at 2.22E-7 M” value turned out to be 53.8%; the “Percentage inhibition of mature hepcidin induced increase in cellular ferritin, Caco-2 cells, Mab at 2.47E-8 M” value was found to be 30.1%; the “Percentage inhibition of mature hepcidin induced increase in cellular ferritin, Caco-2 cells, Mab at 2.7E-9 M” value stood at 39.6%. Further, in assay [1], the “Percentage inhibition of mature hepcidin induced increase in cellular ferritin, Caco-2 cells, Mab at 3.0E-10 M” value is 24.1%; the “Percentage inhibition of mature hepcidin induced increase in cellular ferritin, Caco-2 cells, Mab at 6.67E-7 M” value was 61.7%; the “Percentage inhibition of mature hepcidin induced increase in cellular ferritin, Caco-2 cells, Mab at 7.4E-8 M” value turned out to be 40.6%; the “Percentage inhibition of mature hepcidin induced increase in cellular ferritin, Caco-2 cells, Mab at 8.0E-9 M” value amounted to 39.5%. Further, the “Percentage inhibition of mature hepcidin induced increase in cellular ferritin, Caco-2 cells, Mab at 9.0E-10 M” value in assay [1] came out at 24.4%. Further, the % Inhibition (in general, the relative decrease from the control value, in per cent) in assay [6] came out at 76.5%. The “% Inhibition” value in [7] was found to be 99.8%. Besides, in assay [8], the “% Inhibition” value is -0.1%. The “% Inhibition” value in assay [9] turned out to be 85.1%. In assay [10], the “% Inhibition” value stood at 27.5%.

B4: Fab 3D8 (Fab, V domains shown)
VH: QVQLVQSGAEVKKPGSSVKVSCKASGYAFTSFLIEWVRQAPGQGLEWMGTSNPRTGGTKYKEKFRGRVTITADKSTSTAYMELSSLRSEDTAVYYCAREFFDYWGQGTTVTVSS
VL: DIQMTQSPSSLSASVGDRVTITCRASKSISKYTAWYQQKPGKAPKLLIYAGSKLHSGVPSRFSGSGSGTDFTLTISSLQPEDFATYYCQQHNEYPYTFGGGTKVEIK
notes: Humanized form of mouse Fab 1G9 (VH1-69 and O2 frameworks); also called human 3D8
For the molecule B4, in assay [5], binding was put at a Kd of 10.4 nM, the koff was 0.002 s⁻¹ and the on-rate (kon) came to 192000 M⁻¹ s⁻¹. In assay [11], this molecule gave a dissociation constant Kd of 6.29 nM, an off-rate constant (koff) of 0.00206 s⁻¹ and a kon of 328000 M⁻¹ s⁻¹.

B5: Fab L2.2-4 (Fab, V domains shown)
VH: QVQLVQSGAEVKKPGSSVKVSCKASGYAFTSFLIEWVRQAPGQGLEWMGTSNPRTGGRKYKEKFRGRVTITADKSTSTAYMELSSLRSEDTAVYYCAREFFDYWGQGTTVTVSS
VL: DIQMTQSPSSLSASVGDRVTITCRASKSISKYTAWYQQKPGKAPKLLIYAGSKLRSGVPSRFSGSGSGTDFTLTISSLQPEDFATYYCQQHNEYPYTFGGGTKVEIK
notes: also called human L2.2-4
With B5, in assay [11], the Kd was 1.96 nM, the koff came to 0.00079 s⁻¹ and the kon amounted to 431000 M⁻¹ s⁻¹.

B6: Fab Combi11 (Fab, V domains shown)
VH: QVQLVQSGAEVKKPGSSVKVSCKASGYAFTSFLIEWVRQAPGQGLEWMGTSNPRTGRTKYKSKFRGRVTITADKSTSTAYMELSSLRSEDTAVYYCAREFFDYWGQGTTVTVSS
VL: DIQMTQSPSSLSASVGDRVTITCRASKSISKYTAWYQQKPGKAPKLLIYAGSKRHWGVPSRFSGSGSGTDFTLTISSLQPEDFATYYCQQHNEYPYTFGGGTKVEIK
notes: also called human Combi11
In assay [11], B6 came in with a Kd of 2.4 nM, a koff of 0.00637 s⁻¹ and a kon of 2.31e+06 M⁻¹ s⁻¹.

B7: Fab 4A10-3 (Fab, V domains shown)
VH: QVQLVQSGAEVKKPGSSVKVSCKASGYAFTSFLIEWVRQAPGQGLEWMGTSNPRTGGRKYKEKFRGRVTITADKSTSTAYMELSSLRSEDTAVYYCAREFFDYWGQGTTVTVSS
VL: DIQMTQSPSSLSASVGDRVTITCRASKSISKYTAWYQQKPGKAPKLLIYAGSKLHWGVPSRFSGSGSGTDFTLTISSLQPEDFATYYCQQHNEYPYTFGGGTKVEIK
notes: also called human 4A10-3
As for B7, in [12], binding was characterised by a dissociation constant (Kd) of 1.76 nM, the koff was determined as 0.00148 s⁻¹ and the kon worked out at 844000 M⁻¹ s⁻¹.

These data come from patent US20130122013A1 (Eli Lilly, published 2013).
